As a reminder, the Ki is a measure of affinity in units of concentration, obtained from inhibition or displacement. High values mean lower affinity, low ones higher affinity. As a reminder, the EC50 is the midpoint of the concentration-response curve. One may read the pKi as the Ki on a negative log10 scale, so that one unit is a factor of ten.

Bridge positions count the residues as written; N and C are the ends. Square brackets hold non-standard residues; d marks the D form. Ends that are not written are not given here. Peptide text beside a SMILES is read from it. I, II: the chains in the order shown. αMeF = C[C@](N)(Cc1ccccc1)C(=O)O; S5 = C=CCCC[C@](C)(N)C(=O)O; αMeC = C[C@](N)(CS)C(=O)O Some results are limits rather than exact numbers.

Assay [1] addresses T1, RXFP4 (Homo sapiens, UniProt Q8TDU9). Nature of the assay: Eu-R3/I5 competition binding assay in CHO-K1-RXFP4 cells. Details: expressed in transfected cells. How it is done: An Eu-R3/15 competition binding assay in CHO-K1-RXFP4 cells was carried out.
Competition binding curves for each peptide were performed in triplicate and each experiment was performed independently at least three times. Fluorescent measurements were carried out at excitation of 340 nm and emission of 614 nm on a BMG POLARstar plate reader (BMG Labtech, Melbourne, Australia). Pooled data were presented as mean±S.E.M. of specific binding and are fitted using a one-site binding curve in GraphPad Prism version 8 (GraphPad Inc., San Diego, USA). Statistical analyses were conducted using one-way analysis of variance with uncorrected Fisher's least significant difference (LSD) post-hoc analysis in GraphPad Prism version 9.
(§1) An additional analogue of INSL5 was utilised as a control, INSL5-A13, having an A chain (SEQ ID NO: 9) and a B chain (SEQ ID NO: 10) with a first disulfide bond between Cys 1 of the A chain and Cys 7 of the B chain, and a second disulfide bond between Cys 14 of the A chain and Cys 19 of the B chain:
(§2) Competition binding and cAMP activity assay were conducted by a procedure analogous to that described above for Example 3. The results are shown in FIG. 24 (RXFP3) and FIG. 25 (RXFP4).

For assay [2], the target named is T1, RXFP4. Description: Inhibition of forskolin-induced cAMP activity in CHO-K1-RXFP4 cells (pCRE β-galactosidase reporter). It is filed as cell-based. Details: expressed in transfected cells. How it is done: For agonist assays, cells were stimulated with forskolin (5 μM for RXFP3, 1 μM for RXFP4)±increasing concentrations of each peptide for 6 hours. Data were expressed as the % forskolin activity, whereby 100% was defined as forskolin alone and 0% as maximum agonist stimulation (1 μM Analogue 2 for RXFP3 and 1 μM Analogue 13 for RXFP4). Data were analysed and plotted using GraphPad Prism 9 and are expressed as the mean±SEM of the pooled data. Statistical analysis was conducted using one-way ANOVA with Uncorrected Fisher's LSD post-hoc analysis using GraphPad Prism 9.
as §1, §2

The target in assay [3] is T2, RXFP4 (relaxin family peptide receptor 4) on CHO-K1-RXFP4 cells (UniProt Q8TDU9 1-374, limits assumed). Description: cell-based or functional assay.
T2 sequence (Q8TDU9 whole entry): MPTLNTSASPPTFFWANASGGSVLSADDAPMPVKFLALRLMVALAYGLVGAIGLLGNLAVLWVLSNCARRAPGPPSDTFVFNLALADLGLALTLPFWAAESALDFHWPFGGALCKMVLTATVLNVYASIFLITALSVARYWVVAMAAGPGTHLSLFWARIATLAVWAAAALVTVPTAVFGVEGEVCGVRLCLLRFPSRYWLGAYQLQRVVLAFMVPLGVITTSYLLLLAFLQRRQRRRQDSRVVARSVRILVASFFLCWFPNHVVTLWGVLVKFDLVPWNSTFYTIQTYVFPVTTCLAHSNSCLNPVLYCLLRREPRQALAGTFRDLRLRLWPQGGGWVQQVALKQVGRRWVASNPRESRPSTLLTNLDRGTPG
For assay [4], the target named is T2, RXFP4 (relaxin family peptide receptor …). Nature of the assay: competition with Eu-R3/I5 on CHO-K1-RXFP4 cells.
Assay [5] deals with T3, LgBiT-RXFP4 (HEK-LgBiT-RXFP4 crude membrane fractions) (UniProt Q8TDU9 1-374).
T3 construct: Assayed as crude membrane fractions (25 µg protein) of HEK cells; not shown: LgBiT tag of NanoBiT
T3 sequence (Q8TDU9 whole entry): as above
Nature of the assay: NanoBiT competition with 2 nM SmBiT-R3/I5 on HEK-LgBiT-RXFP4 membranes.

T1 sequence (Q8TDU9 whole entry): as above

With `CC[C@H](C)[C@H](NC(=O)[C@H](Cc1ccc(O)cc1)NC(=O)[C@@H](NC(=O)[C@@H](NC(=O)[C@]1(C)CSSC[C@](C)(NC(=O)[C@H](CC(C)C)NC(=O)CNC(=O)[C@H](CO)NC(C)=O)C(=O)N[C@@H](Cc2ccc(O)cc2)C(=O)N[C@@H]([C@@H](C)CC)C(=O)N[C@@H](CCCNC(=N)N)C(=O)N1)C(C)C)[C@@H](C)CC)C(=O)N[C@@H](CO)C(=O)NCC(=O)NCC(=O)N[C@@H](CO)C(=O)N[C@@H](CCCNC(=N)N)C(=O)N[C@@H](Cc1c[nH]c2ccccc12)C(=O)O` [Disulfide bridge stapled analogue] (Ac-SGL[αMeC]YIR[αMeC]VIYISGGSRW-OH; disulfide 4-8; C-terminus assumed), affinity in assay [1] was put at a Ki of 46.8 nM. For the same molecule, the midpoint of the response in assay [2], the EC50, lay at 145 nM.

On to “SGLEYIRTVIYISGGSRW-OH [Linear B-chain, S-G-L-E-Y-I-R-T-V-I-Y-I-S-G-G-S-R-W-OH]”, for which the “Eu-R3/I5 pKi” value in assay [1] (RXFP4, Table 5) is reported as “No binding (3)”.

B1: INSL5-A13 (two-chain INSL5 analogue, RXFP4 agonist) (ligand)
chain 1: CTDGASMKDLSALC
chain 2: KESVRLCGLEYIRTVIYICASSRW
modifications: disulfide I:1-II:7, I:14-II:19
notes: Disulfide bonds: Cys 1 of A chain to Cys 7 of B chain; Cys 14 of A chain to Cys 19 of B chain; also called Analogue 13; two chain agonist
On to B1, for which the “cAMP pEC50” value in assay [3] turned out to be 8.1. Besides, the figures for the pKi in assay [4] and in assay [5] were 7.46 and 8.11, respectively.

Ac-SGL[αMeC]YIR[αMeC]VIYISGGSRW (disulfide 4-8, also called disulfide stapled analogue) [Disulfide bridge stapled analogue (INSL5 B-chain, Formula IX)]: the “cAMP pEC50” value in assay [3] is 6.84. Also, the pKi in assay [4] was 7.33.

The molecule SGLKYIRDVIYISGASRW (lactam 4-8) [Lactam Bridge stapled analogue (INSL5 B-chain, Formula VII)] yielded a negative-log Ki (pKi) in assay [5] of 6.45.

B2: INSL5-A13: B7-24_G20/21 (two-chain G20/21 analogue) (ligand)
chain 1: CTDGASMKDLSALC
chain 2: CGLEYIRTVIYICGGSRW
notes: GlyGly at positions B20 and B21; also called Formula III
For B2, the “cAMP pEC50” value in assay [3] amounted to 8.93. Moreover, in assay [5], the pKi is 8.64.

B3: INSL5-A13: B7-24 (reduced two chain analogue) (ligand)
chain 1: CTDGASMKDLSALC
chain 2: CGLEYIRTVIYICASSRW
modifications: not fully specified; cysteine pairing not given here
notes: also called Formula II
Turning to B3, the “cAMP pEC50” value in assay [3] stood at 8.08. Also, the pKi in assay [5] was 8.06.

B4: Linear B-chain (INSL5 B chain analogue, Formula IV) (peptide)
peptide: SGLEYIRTVIYISGGSRW-OH
notes: Residues numbered 7-24 after the native INSL5 B chain; also called control
As to B4, the “cAMP pEC50” value in assay [3] is less than 5. In assay [4], the binding result is on record as “no binding”.

B5: αF stapled analogue (INSL5 B-chain, Formula V) (peptide)
peptide: SGL[αMeF]YIR[αMeF]VIYISGGSRW
notes: 18-residue RXFP4 agonist; also called aF stapled analogue; πI5B
In the case of B5, the “cAMP pEC50” value in assay [3] was found to be 7.06. Further, the pKi was 6.8 in assay [4] and 7.51 in assay [5].

B6: πI5B7-24-GG-S19E (peptide)
peptide: SGL[αMeF]YIR[αMeF]VIYIEGGSRW
notes: 18-residue RXFP4 agonist with two αF residues and glutamic acid at residue 19 (numbering of native INSL5 B chain)
Take B6: the “cAMP pEC50” value in assay [3] is 7.39. The molecule also yielded a pKi in assay [5] of 8.13.

On to Ac-SGL[S5]YIR[S5]VIYISGASRW (staple 4-8) [Hydrocarbon stapled analogue (INSL5 B-chain, Formula VI)], for which, in assay [3], the “cAMP pEC50” value turned out to be 6.18. In addition, the negative-log Ki (pKi) in assay [5] stood at 6.81.

B7: Native INSL5 (human insulin-like peptide 5) (ligand)
chain 1: ZDLQTLCCTDGCSMTDLSALC
chain 2: KESVRLCGLEYIRTVIYICASSRW
With B7, the “cAMP pEC50” value in assay [3] was 8.34. Moreover, the values for the pKi in assay [4] and in assay [5] were 8.43 and 8.47, respectively.
